Measured values taken from patent US20200262877A1, “ION CHANNEL-BINDING PEPTIDES AND METHODS OF USE THEREOF” (priority 2017, published 2020).

Key:
Cav2.2 = target: T1, Cav2.2 (Homo sapiens, UniProt Q00975); experiment: cell-based; settings: 100% = no change, <100% = inhibition
T1 construct: host or cells: HEK293 or CHO
Summary of the method: (§1)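 Peptides were tested in duplicate at final 20 μM and 200 nM, with concentration set by amino acid analysis, in HEPES-buffered saline. They were applied for at least 5 min to HEK293 or CHO cells transfected with each channel. Currents were expressed as % inhibition, 1-(Ipeptide/Icontrol)×100, or % activation, Ipeptide/Icontrol×100, against a channel-matched reference compound.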

Cav2.1 = target: T2, Cav2.1 (Homo sapiens, UniProt O00555); experiment: cell-based; settings: 100% = no change, <100% = inhibition
T2 construct: host or cells: HEK293 or CHO
Summary of the method: as §1

Kv2.1 = target: T3, Kv2.1 (Homo sapiens, UniProt Q14721); experiment: cell-based; settings: 100% = no change, <100% = inhibition
T3 construct: host or cells: HEK293 or CHO
Summary of the method: as §1

GABA = experiment: Ion channel panel (IonWorks Barracuda): GABA; assay type: cell-based; settings: 100% = no change, <100% = inhibition
Summary of the method: as §1

Kv1.3 = target: T4, Kv1.3 (Homo sapiens, UniProt P22001); experiment: cell-based; assay type: cell-based; settings: 100% = no change, <100% = inhibition
T4 construct: host or cells: HEK293 or CHO
Summary of the method: as §1

Kv1.1 = target: T5, Kv1.1 (Homo sapiens, UniProt Q09470); experiment: cell-based; assay type: cell-based; settings: 100% = no change, <100% = inhibition
T5 construct: host or cells: HEK293 or CHO
Summary of the method: as §1

Kv1.2 = target: T6, Kv1.2 (Homo sapiens, UniProt P16389); experiment: cell-based; assay type: cell-based; settings: 100% = no change, <100% = inhibition
T6 construct: host or cells: HEK293 or CHO
Summary of the method: as §1

α4β2 = target: T7, α4β2 (Homo sapiens, UniProt P17787+P43681); experiment: Ion channel panel (IonWorks Barracuda): α4β2; assay type: cell-based; settings: 100% = no change, <100% = inhibition
T7 construct: host or cells: HEK293 or CHO
Summary of the method: as §1

TRPV1 = target: T8, TRPV1 (Homo sapiens, UniProt Q8NER1); experiment: Ion channel panel (IonWorks Barracuda): TRPV1; assay type: cell-based; settings: 100% = no change, <100% = inhibition
T8 construct: host or cells: HEK293 or CHO
Summary of the method: as §1

Nav1.7 = target: T9, Nav1.7 (Homo sapiens, UniProt Q15858); experiment: cell-based; assay type: cell-based; settings: 100% = no change; for Activity of Nav1.7 with peptide, expressed as a percentage of the reference compound: peptide at 0.2 μM; for Activity of Nav1.7 with peptide (percentage of the reference compound): peptide at 20 μM
T9 construct: host or cells: HEK293 or CHO

α3β4 = target: T10, α3β4 (Homo sapiens, UniProt P30926+P32297); experiment: Ion channel panel (IonWorks Barracuda): α3β4; assay type: cell-based; settings: 100% = no change, <100% = inhibition
T10 construct: host or cells: HEK293 or CHO
Summary of the method: as §1

NR2B = target: T11, NR2B (Homo sapiens, UniProt Q13224); experiment: Ion channel panel (IonWorks Barracuda): NR2B; assay type: cell-based; settings: 100% = no change, <100% = inhibition
T11 construct: host or cells: HEK293 or CHO
Summary of the method: as §1

Kir2.1 = target: T12, Kir2.1 (Homo sapiens, UniProt P63252); experiment: Ion channel panel (IonWorks Barracuda): Kir2.1; assay type: cell-based; settings: 100% = no change, <100% = inhibition
T12 construct: host or cells: HEK293 or CHO
Summary of the method: as §1

NR2A = target: T13, NR2A (Homo sapiens, UniProt Q12879); experiment: Ion channel panel (IonWorks Barracuda): NR2A; assay type: cell-based; settings: 100% = no change, <100% = inhibition
T13 construct: host or cells: HEK293 or CHO
Summary of the method: as §1

TRPA1 = target: T14, TRPA1 (Homo sapiens, UniProt O75762); experiment: Ion channel panel (IonWorks Barracuda): TRPA1; assay type: cell-based; settings: 100% = no change, <100% = inhibition
T14 construct: host or cells: HEK293 or CHO
Summary of the method: as §1

5HT3a = target: T15, 5HT3a (Homo sapiens, UniProt P46098); experiment: Ion channel panel (IonWorks Barracuda): 5HT3a; assay type: cell-based
T15 construct: host or cells: HEK293 or CHO
T15 sequence (P46098 whole entry, looked up): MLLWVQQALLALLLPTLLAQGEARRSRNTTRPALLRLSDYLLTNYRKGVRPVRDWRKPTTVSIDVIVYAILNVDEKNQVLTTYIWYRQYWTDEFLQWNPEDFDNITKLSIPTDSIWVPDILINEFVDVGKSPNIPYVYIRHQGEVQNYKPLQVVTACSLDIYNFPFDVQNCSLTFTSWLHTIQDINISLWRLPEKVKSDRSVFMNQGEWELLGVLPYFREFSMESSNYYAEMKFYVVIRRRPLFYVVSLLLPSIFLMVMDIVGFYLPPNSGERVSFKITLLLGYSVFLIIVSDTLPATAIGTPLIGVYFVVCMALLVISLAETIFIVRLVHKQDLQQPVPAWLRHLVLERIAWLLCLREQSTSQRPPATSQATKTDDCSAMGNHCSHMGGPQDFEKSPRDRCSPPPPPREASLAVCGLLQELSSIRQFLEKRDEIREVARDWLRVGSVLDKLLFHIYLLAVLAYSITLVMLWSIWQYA
Summary of the method: as §1

Nav1.5 = Nav1.5 (Homo sapiens, UniProt Q14524); experiment: in vitro; settings: 100% = no change; for Activity of Nav1.5 with peptide, expressed as a percentage of the reference compound: peptide at 0.2 μM; for Activity of Nav1.5 with peptide (percentage of the reference compound): peptide at 20 μM
Summary of the method: as §1

hERG = hERG (Homo sapiens, UniProt Q12809); experiment: in vitro; settings: 100% = no change, <100% = inhibition
Summary of the method: as §1

[1] = first of two Nav1.7 columns (probably TP1)
[2] = second of two Nav1.7 columns (probably TP2)
[3] = first of two Nav1.5 columns (probably TP1)
[4] = second of two Nav1.5 columns (probably TP2)

T9 sequence (Q15858 whole entry): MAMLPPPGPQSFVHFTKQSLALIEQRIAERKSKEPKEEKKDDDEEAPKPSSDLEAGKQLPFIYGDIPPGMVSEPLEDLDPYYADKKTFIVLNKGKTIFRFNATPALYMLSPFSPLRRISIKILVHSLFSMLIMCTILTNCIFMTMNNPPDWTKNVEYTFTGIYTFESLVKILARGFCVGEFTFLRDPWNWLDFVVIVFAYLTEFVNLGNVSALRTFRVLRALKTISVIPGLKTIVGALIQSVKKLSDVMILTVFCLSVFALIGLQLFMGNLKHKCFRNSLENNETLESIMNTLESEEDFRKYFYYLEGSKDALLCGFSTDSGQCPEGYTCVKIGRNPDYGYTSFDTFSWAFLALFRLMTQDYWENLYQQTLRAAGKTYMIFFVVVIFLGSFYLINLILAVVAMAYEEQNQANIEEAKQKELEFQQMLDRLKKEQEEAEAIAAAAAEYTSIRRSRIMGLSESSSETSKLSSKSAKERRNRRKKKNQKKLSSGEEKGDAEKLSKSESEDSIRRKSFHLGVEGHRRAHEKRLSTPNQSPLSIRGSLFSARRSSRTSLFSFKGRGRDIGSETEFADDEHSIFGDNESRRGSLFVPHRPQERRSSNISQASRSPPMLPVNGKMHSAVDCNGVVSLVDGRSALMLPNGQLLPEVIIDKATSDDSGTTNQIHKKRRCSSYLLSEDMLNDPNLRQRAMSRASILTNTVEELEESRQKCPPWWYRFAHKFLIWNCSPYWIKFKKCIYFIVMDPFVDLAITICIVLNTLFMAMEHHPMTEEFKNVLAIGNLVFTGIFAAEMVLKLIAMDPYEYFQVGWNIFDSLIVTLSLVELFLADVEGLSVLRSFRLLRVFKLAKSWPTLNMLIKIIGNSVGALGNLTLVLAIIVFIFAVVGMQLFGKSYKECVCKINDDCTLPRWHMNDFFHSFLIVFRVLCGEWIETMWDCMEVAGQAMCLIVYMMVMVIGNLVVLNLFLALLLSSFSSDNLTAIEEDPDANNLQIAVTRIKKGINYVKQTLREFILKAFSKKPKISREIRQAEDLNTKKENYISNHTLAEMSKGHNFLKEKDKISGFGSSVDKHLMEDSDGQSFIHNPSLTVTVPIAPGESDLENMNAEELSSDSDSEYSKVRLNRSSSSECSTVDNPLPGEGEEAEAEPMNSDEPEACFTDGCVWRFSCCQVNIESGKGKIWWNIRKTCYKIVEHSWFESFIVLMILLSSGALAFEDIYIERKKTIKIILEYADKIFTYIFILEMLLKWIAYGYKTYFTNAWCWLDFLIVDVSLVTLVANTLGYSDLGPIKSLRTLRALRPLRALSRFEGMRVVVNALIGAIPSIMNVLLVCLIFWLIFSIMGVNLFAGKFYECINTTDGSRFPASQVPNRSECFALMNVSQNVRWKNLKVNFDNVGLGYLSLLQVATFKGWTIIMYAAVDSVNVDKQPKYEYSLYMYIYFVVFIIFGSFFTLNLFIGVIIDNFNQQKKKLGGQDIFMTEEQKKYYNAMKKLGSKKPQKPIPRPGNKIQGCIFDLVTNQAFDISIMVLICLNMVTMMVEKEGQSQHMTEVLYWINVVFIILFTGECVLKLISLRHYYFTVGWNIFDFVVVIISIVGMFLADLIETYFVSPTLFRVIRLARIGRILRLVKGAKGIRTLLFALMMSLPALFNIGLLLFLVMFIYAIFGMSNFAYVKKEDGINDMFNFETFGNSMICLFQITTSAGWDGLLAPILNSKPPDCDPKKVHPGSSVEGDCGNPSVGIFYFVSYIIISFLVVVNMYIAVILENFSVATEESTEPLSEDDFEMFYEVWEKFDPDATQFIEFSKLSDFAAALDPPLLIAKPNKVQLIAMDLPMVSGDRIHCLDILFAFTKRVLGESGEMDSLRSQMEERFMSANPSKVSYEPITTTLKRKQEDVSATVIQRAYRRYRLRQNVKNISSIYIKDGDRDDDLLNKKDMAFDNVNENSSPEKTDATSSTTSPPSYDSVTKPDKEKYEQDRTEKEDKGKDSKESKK
Sequence of Nav1.5 (Q14524 whole entry): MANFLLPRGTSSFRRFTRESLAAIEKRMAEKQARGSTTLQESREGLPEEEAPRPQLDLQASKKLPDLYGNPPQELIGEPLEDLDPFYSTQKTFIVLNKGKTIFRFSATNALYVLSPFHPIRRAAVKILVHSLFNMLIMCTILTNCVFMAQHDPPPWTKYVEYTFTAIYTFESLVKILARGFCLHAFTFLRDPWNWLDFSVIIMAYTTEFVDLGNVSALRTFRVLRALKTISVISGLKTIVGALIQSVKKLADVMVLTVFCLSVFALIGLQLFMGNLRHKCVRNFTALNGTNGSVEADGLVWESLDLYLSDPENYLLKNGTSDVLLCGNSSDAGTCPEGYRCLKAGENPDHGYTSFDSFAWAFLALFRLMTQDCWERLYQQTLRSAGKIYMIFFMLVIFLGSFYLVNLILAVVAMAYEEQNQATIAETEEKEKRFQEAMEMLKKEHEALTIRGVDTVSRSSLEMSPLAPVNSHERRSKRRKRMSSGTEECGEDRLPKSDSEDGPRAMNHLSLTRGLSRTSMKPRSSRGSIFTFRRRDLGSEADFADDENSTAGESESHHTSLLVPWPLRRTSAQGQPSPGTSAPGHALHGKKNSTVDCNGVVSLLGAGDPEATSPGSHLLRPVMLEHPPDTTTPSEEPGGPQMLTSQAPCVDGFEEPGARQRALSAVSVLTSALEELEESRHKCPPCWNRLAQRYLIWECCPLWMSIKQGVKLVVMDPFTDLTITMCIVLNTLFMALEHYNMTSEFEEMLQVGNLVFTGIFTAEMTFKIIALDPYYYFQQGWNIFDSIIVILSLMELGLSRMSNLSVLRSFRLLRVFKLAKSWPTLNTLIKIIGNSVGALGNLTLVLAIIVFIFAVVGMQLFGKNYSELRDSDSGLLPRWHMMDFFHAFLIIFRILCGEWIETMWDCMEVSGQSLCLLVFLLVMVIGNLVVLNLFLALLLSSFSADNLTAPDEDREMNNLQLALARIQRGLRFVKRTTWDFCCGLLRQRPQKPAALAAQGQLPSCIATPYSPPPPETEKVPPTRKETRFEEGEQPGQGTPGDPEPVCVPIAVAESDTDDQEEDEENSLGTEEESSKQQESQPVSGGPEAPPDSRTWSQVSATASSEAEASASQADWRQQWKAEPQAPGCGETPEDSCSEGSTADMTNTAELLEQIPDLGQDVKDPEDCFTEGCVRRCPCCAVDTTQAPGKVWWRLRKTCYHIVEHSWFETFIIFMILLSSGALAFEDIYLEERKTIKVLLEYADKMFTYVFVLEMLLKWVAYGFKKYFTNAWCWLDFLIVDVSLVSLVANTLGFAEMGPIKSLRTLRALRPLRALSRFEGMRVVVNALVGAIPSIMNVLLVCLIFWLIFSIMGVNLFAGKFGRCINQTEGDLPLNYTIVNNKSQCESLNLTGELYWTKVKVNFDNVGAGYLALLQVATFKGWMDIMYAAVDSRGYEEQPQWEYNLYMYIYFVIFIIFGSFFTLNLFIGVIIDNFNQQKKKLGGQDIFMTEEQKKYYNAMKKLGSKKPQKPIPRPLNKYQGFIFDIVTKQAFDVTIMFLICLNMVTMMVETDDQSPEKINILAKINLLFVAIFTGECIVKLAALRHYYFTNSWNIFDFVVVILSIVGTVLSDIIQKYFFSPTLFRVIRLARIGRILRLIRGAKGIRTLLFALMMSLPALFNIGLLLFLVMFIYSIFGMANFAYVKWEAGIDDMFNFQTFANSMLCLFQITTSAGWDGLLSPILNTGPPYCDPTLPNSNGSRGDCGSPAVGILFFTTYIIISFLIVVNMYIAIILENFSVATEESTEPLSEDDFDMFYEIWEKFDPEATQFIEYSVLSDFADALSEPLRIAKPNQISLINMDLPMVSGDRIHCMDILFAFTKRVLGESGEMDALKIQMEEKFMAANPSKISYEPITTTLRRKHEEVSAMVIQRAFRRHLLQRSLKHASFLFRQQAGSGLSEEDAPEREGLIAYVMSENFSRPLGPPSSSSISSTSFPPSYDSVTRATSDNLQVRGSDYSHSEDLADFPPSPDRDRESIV
T10 sequence (P30926 22-498): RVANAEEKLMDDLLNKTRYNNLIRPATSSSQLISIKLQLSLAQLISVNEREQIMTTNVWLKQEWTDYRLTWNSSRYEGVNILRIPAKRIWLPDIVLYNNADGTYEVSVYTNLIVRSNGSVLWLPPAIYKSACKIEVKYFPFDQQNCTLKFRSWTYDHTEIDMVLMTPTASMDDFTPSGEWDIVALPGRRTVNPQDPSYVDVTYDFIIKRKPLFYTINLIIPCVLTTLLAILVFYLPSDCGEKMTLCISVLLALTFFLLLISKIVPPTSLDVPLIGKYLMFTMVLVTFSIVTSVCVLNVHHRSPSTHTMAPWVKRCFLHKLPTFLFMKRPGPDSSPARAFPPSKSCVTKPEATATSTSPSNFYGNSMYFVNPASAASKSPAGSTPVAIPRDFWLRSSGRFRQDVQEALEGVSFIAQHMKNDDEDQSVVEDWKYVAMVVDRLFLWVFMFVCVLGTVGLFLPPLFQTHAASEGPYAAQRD
T10 sequence (P32297 32-505): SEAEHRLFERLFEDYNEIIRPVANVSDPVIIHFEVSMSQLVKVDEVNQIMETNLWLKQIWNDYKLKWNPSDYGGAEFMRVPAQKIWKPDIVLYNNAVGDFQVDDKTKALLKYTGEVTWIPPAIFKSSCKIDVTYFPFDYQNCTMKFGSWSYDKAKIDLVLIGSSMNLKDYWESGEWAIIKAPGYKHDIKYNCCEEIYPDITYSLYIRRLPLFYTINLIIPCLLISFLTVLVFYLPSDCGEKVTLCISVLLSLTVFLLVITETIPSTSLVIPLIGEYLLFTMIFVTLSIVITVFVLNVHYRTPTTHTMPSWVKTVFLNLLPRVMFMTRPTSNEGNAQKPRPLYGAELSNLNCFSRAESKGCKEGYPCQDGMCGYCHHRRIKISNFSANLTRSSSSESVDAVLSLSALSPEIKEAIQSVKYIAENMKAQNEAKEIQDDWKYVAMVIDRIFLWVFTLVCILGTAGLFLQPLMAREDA

32 (GSQDKCKKVYENYPVSKCQLANQCNYDCKLDKHARSGECFYDEKRNLQCICDYCEY) [compound 32]
Activity of Cav2.2 with peptide, expressed as a percentage of the reference compound (Cav2.2; peptide at 0.2 μM): 102% | Activity of Cav2.2 with peptide (percentage of the reference compound) (Cav2.2; peptide at 20 μM): 101% | Activity of Cav2.1 with peptide, expressed as a percentage of the reference compound (Cav2.1; peptide at 0.2 μM): 98% | Activity of Cav2.1 with peptide (percentage of the reference compound) (Cav2.1; peptide at 20 μM): 92% | Activity of Kv2.1 with peptide, expressed as a percentage of the reference compound (Kv2.1; peptide at 0.2 μM): 92% | Activity of Kv2.1 with peptide (percentage of the reference compound) (Kv2.1; peptide at 20 μM): 93% | Activity of GABA with peptide, expressed as a percentage of the reference compound (GABA; peptide at 0.2 μM): 98% | Activity of GABA with peptide (percentage of the reference compound) (GABA; peptide at 20 μM): 105% | Activity of Kv1.3 with peptide, expressed as a percentage of the reference compound (Kv1.3; peptide at 0.2 μM): 98% | Activity of Kv1.3 with peptide (percentage of the reference compound) (Kv1.3; peptide at 20 μM): 98% | Activity of Kv1.1 with peptide, expressed as a percentage of the reference compound (Kv1.1; peptide at 0.2 μM): 76% | Activity of Kv1.1 with peptide (percentage of the reference compound) (Kv1.1; peptide at 20 μM): 114% | Activity of Kv1.2 with peptide, expressed as a percentage of the reference compound (Kv1.2; peptide at 0.2 μM): 89% | Activity of Kv1.2 with peptide (percentage of the reference compound) (Kv1.2; peptide at 20 μM): 112% | Activity of a4b2 with peptide, expressed as a percentage of the reference compound (α4β2; peptide at 0.2 μM): 81% | Activity of a4b2 with peptide (percentage of the reference compound) (α4β2; peptide at 20 μM): 86% | Activity of TRPV1 with peptide, expressed as a percentage of the reference compound (TRPV1; peptide at 0.2 μM): 99% | Activity of TRPV1 with peptide (percentage of the reference compound) (TRPV1; peptide at 20 μM): 84% | Activity of Nav1.7 with peptide, expressed as a percentage of the reference compound (Nav1.7; [1]): 96% | Activity of Nav1.7 with peptide, expressed as a percentage of the reference compound (Nav1.7; [2]): 97% | Activity of Nav1.7 with peptide (percentage of the reference compound) (Nav1.7; [1]): 87% | Activity of Nav1.7 with peptide (percentage of the reference compound) (Nav1.7; [2]): 61% | Activity of a3b4 with peptide, expressed as a percentage of the reference compound (α3β4; peptide at 0.2 μM): 100% | Activity of a3b4 with peptide (percentage of the reference compound) (α3β4; peptide at 20 μM): 96% | Activity of NR2B with peptide, expressed as a percentage of the reference compound (NR2B; peptide at 0.2 μM): 76% | Activity of NR2B with peptide (percentage of the reference compound) (NR2B; peptide at 20 μM): 106% | Activity of Kir2.1 with peptide, expressed as a percentage of the reference compound (Kir2.1; peptide at 0.2 μM): 95% | Activity of Kir2.1 with peptide (percentage of the reference compound) (Kir2.1; peptide at 20 μM): 79% | Activity of NR2A with peptide, expressed as a percentage of the reference compound (NR2A; peptide at 0.2 μM): 95% | Activity of NR2A with peptide (percentage of the reference compound) (NR2A; peptide at 20 μM): 110% | Activity of TRPA1 with peptide, expressed as a percentage of the reference compound (TRPA1; peptide at 0.2 μM): 130% | Activity of TRPA1 with peptide (percentage of the reference compound) (TRPA1; peptide at 20 μM): 108% | Activity of 5HT3a with peptide (percentage of the reference compound) (5HT3a): 105% | Activity of 5HT3a with peptide, expressed as a percentage of the reference compound (5HT3a): 95% | Activity of Nav1.5 with peptide, expressed as a percentage of the reference compound (Nav1.5; [3]): 108% | Activity of Nav1.5 with peptide, expressed as a percentage of the reference compound (Nav1.5; [4]): 101% | Activity of Nav1.5 with peptide (percentage of the reference compound) (Nav1.5; [3]): 90% | Activity of Nav1.5 with peptide (percentage of the reference compound) (Nav1.5; [4]): 90% | Activity of hERG with peptide, expressed as a percentage of the reference compound (hERG; peptide at 0.2 μM): 90% | Activity of hERG with peptide (percentage of the reference compound) (hERG; peptide at 20 μM): 65%
